This is an account of results in PMC6879610.

The target in experiment [1] is Env Du156.12 (HIV-1 (Du156.12)).
Experiment [2] has as its target Env HxB2 (HIV-1 (HxB2)) (UniProt P04578).

Consider PGZL1 F100A IgG (antibody), for which, in experiment [1], the neutralisation of Du156.12 (TZM-bl), fold decrease against PGZL1 was over 10 fold. The same substance gave a neutralisation of HxB2 (TZM-bl), fold decrease against PGZL1 in experiment [2] of over 10 fold.
PGZL1 W99A IgG (antibody) had a neutralisation of Du156.12 (TZM-bl), fold decrease against PGZL1 in experiment [1] of over 10 fold. In experiment [2], this substance gave a neutralisation of HxB2 (TZM-bl), fold decrease against PGZL1 of over 10 fold.
